Results published in patent US20150344570A1 (published 2015).

T1: FcγRIIb extracellular domain with C-terminal His tag (human, UniProt P31994 43-217)
T1 construct: extracellular domain; also called FcgRIIb; CD32B; not shown: His tag at the C terminus
T1 sequence (looked up): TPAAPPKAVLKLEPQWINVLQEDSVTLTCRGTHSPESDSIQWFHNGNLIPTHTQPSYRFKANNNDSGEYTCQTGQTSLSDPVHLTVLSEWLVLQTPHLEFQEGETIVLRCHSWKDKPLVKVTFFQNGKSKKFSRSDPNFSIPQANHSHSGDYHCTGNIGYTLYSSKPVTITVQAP

T2: FcγRIIa R (human, UniProt P12318 34-217)
T2 construct: extracellular domain; also called FcgRIIa R; FcγRIIa type R; not shown: His tag at the C terminus
T2 sequence (looked up): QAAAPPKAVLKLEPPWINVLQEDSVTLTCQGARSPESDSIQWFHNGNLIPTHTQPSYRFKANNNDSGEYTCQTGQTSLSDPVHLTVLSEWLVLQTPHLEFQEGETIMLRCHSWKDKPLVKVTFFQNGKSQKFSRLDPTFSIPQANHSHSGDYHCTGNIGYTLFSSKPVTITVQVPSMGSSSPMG

T3: FcγRIIb (human, UniProt P31994 43-217)
T3 construct: extracellular domain; also called FcgRIIb; 2b; not shown: His tag at the C terminus
T3 sequence (looked up): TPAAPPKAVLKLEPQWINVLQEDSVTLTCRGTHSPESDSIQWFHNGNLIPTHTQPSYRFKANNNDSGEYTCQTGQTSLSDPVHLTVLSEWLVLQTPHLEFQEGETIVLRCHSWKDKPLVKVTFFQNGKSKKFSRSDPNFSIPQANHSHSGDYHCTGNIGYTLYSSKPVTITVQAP


Tests used:
[1] = target: T4, FcγRIa extracellular domain with C-terminal His tag (human, UniProt P12314 16-292); experiment: SPR; He/Con_1a divided by He/Con_2b (FcγRIa against FcγRIIb)
T4 construct: extracellular domain; also called FcgRI; CD64; not shown: His tag at the C terminus
T4 sequence (P12314 16-292): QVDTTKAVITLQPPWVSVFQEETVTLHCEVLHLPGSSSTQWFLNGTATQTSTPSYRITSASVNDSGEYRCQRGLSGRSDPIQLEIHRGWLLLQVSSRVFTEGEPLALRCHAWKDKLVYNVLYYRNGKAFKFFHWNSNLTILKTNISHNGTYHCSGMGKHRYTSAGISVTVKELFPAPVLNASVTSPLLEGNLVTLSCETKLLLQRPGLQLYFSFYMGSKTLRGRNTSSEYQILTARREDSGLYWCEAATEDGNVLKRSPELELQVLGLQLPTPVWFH

[2] = target: T1, FcγRIIb extracellular domain with …; experiment: SPR (Biacore), antibody captured, FcγR analyte; relative to GpH7-A5/GpH7-B3/GpL16-k0 = 100
[3] = target: T4, FcγRIa extracellular domain with …; experiment: as above
FcγRIIa R [4] = target: T2, FcγRIIa R; experiment: SPR (Biacore T100); He/Con_2aR divided by He/Con_2b (FcγRIIa R over FcγRIIb)
Procedure: (§1) The heterodimerized antibodies He Abs in which one of the H chains was introduced with an alteration were assayed for their binding activities to each activating FcγR and inhibitory FcγR according to the method described in Example 4. […] The activating FcγRs in FIGS. 26, 27, 28, and 29 are FcγRIa, FcγRIIa (R), FcγRIIa (H), and FcγRIIIa, respectively.
(§2) Analysis of interaction between objective antibody and the FcγR was carried out using Biacore T100 (GE Healthcare). HBS-EP+ (GE Healthcare) was used as the running buffer, and the measurement temperature was set to 25° C. Chips produced by immobilizing the antigen peptide by the amine coupling method to a Series S Sencor Chip CM5 (GE Healthcare), or alternatively, chips produced by allowing preliminarily biotinylated antigen peptides to interact with and immobilize onto a Series S Sensor Chip SA (certified) (GE Healthcare) were used. Antibodies of interest were captured onto an antigen peptide-immobilized chip, and allowed to interact to each FcγR diluted with running buffer. To regenerate and repeatedly use the chip, the antibodies captured on the chip were washed off by reacting 10 mM glycine-HCl, pH 1.5.

FcγRIIa R [5] = target: T2, FcγRIIa R; experiment: SPR (Biacore T100), antibody captured on antigen peptide chip, FcγR as analyte; binding relative to GpH7-A5/GpH7-B3/GpL16-k0 = 100
Procedure: as §1, §2

FcγRIIb = target: T3, FcγRIIb; experiment: as above
Procedure: as §1, §2

| Binder | He_1a/2b (Ia/IIb) [1] [ratio] | He/Con_2b [2] | He/Con_1a [3] | He_2aR/2b (IIaR/IIb) (FcγRIIa R [4]) [ratio] | He/Con_2aR (IIaR binding) (FcγRIIa R [5]) | He/Con_2b (IIb binding) (FcγRIIb) |
| --- | --- | --- | --- | --- | --- | --- |
| GpH7-A5/GpH7-B3 variant S239_16H/GpL16-k0 (antibody, human IgG1, kappa, Heterodimerized anti-glypican-3 IgG1; mutation only in the GpH7-B3 H chain; also called He Ab) heavy 1: not shown heavy 2: not shown light: DIVMTQSPLSLPVTPGEPASISCQASESLVHSNRNTYLHWYLQKPGQSPQLLIYKVSNRFSGVPDRFSGSGSGTDFTLKISRVEAEDVGVYYCSQNTHVPPTFGQGTKVEIERTVAAPSVFIFPPSDEQLKSGTASVVCLLNNFYPREAKVQWKVDNALQSGNSQESVTEQDSKDSTYSLSSTLTLSKADYEKHKVYACEVTHQGLSSPVTKSFNRGEC | 1.78 | 49.4 % of HeCon Ab | 88.1 % of HeCon Ab |  |  |  |
| GpH7-A5/GpH7-B3 variant P238_01G/GpL16-k0 (antibody, human IgG1, kappa, Heterodimerized anti-glypican-3 IgG1; mutation in one H chain only; also called He Ab) heavy 1: not shown heavy 2: not shown light: DIVMTQSPLSLPVTPGEPASISCQASESLVHSNRNTYLHWYLQKPGQSPQLLIYKVSNRFSGVPDRFSGSGSGTDFTLKISRVEAEDVGVYYCSQNTHVPPTFGQGTKVEIERTVAAPSVFIFPPSDEQLKSGTASVVCLLNNFYPREAKVQWKVDNALQSGNSQESVTEQDSKDSTYSLSSTLTLSKADYEKHKVYACEVTHQGLSSPVTKSFNRGEC |  |  |  | 1.34 | 75 % of control | 56 % of control |
| GpH7-A5/GpH7-B3 variant D265_01G/GpL16-k0 (antibody, human IgG1, kappa, Heterodimerized anti-glypican-3 IgG1; mutation in one H chain only; also called He Ab) heavy 1: not shown heavy 2: not shown light: DIVMTQSPLSLPVTPGEPASISCQASESLVHSNRNTYLHWYLQKPGQSPQLLIYKVSNRFSGVPDRFSGSGSGTDFTLKISRVEAEDVGVYYCSQNTHVPPTFGQGTKVEIERTVAAPSVFIFPPSDEQLKSGTASVVCLLNNFYPREAKVQWKVDNALQSGNSQESVTEQDSKDSTYSLSSTLTLSKADYEKHKVYACEVTHQGLSSPVTKSFNRGEC |  |  |  | 1.49 | 24.1 % of control | 16.1 % of control |
| GpH7-A5/GpH7-B3 variant D265_02A/GpL16-k0 (antibody, human IgG1, kappa, Heterodimerized anti-glypican-3 IgG1; mutation in one H chain only; also called He Ab) heavy 1: not shown heavy 2: not shown light: DIVMTQSPLSLPVTPGEPASISCQASESLVHSNRNTYLHWYLQKPGQSPQLLIYKVSNRFSGVPDRFSGSGSGTDFTLKISRVEAEDVGVYYCSQNTHVPPTFGQGTKVEIERTVAAPSVFIFPPSDEQLKSGTASVVCLLNNFYPREAKVQWKVDNALQSGNSQESVTEQDSKDSTYSLSSTLTLSKADYEKHKVYACEVTHQGLSSPVTKSFNRGEC |  |  |  | 1.71 | 33.9 % of control | 19.9 % of control |
| GpH7-A5/GpH7-B3 variant D265_03V/GpL16-k0 (antibody, human IgG1, kappa, Heterodimerized anti-glypican-3 IgG1; mutation in one H chain only; also called He Ab) heavy 1: not shown heavy 2: not shown light: DIVMTQSPLSLPVTPGEPASISCQASESLVHSNRNTYLHWYLQKPGQSPQLLIYKVSNRFSGVPDRFSGSGSGTDFTLKISRVEAEDVGVYYCSQNTHVPPTFGQGTKVEIERTVAAPSVFIFPPSDEQLKSGTASVVCLLNNFYPREAKVQWKVDNALQSGNSQESVTEQDSKDSTYSLSSTLTLSKADYEKHKVYACEVTHQGLSSPVTKSFNRGEC |  |  |  | 1.8 | 5.8 % of control | 3.2 % of control |
| GpH7-A5/GpH7-B3 variant D265_04F/GpL16-k0 (antibody, human IgG1, kappa, Heterodimerized anti-glypican-3 IgG1; mutation in one H chain only; also called He Ab) heavy 1: not shown heavy 2: not shown light: DIVMTQSPLSLPVTPGEPASISCQASESLVHSNRNTYLHWYLQKPGQSPQLLIYKVSNRFSGVPDRFSGSGSGTDFTLKISRVEAEDVGVYYCSQNTHVPPTFGQGTKVEIERTVAAPSVFIFPPSDEQLKSGTASVVCLLNNFYPREAKVQWKVDNALQSGNSQESVTEQDSKDSTYSLSSTLTLSKADYEKHKVYACEVTHQGLSSPVTKSFNRGEC |  |  |  | 1.79 | 5.6 % of control | 3.2 % of control |
| GpH7-A5/GpH7-B3 variant D265_06M/GpL16-k0 (antibody, human IgG1, kappa, Heterodimerized anti-glypican-3 IgG1; mutation in one H chain only; also called He Ab) heavy 1: not shown heavy 2: not shown light: DIVMTQSPLSLPVTPGEPASISCQASESLVHSNRNTYLHWYLQKPGQSPQLLIYKVSNRFSGVPDRFSGSGSGTDFTLKISRVEAEDVGVYYCSQNTHVPPTFGQGTKVEIERTVAAPSVFIFPPSDEQLKSGTASVVCLLNNFYPREAKVQWKVDNALQSGNSQESVTEQDSKDSTYSLSSTLTLSKADYEKHKVYACEVTHQGLSSPVTKSFNRGEC |  |  |  | 1.58 | 15.8 % of control | 10 % of control |
| GpH7-A5/GpH7-B3 variant D265_07I/GpL16-k0 (antibody, human IgG1, kappa, Heterodimerized anti-glypican-3 IgG1; mutation in one H chain only; also called He Ab) heavy 1: not shown heavy 2: not shown light: DIVMTQSPLSLPVTPGEPASISCQASESLVHSNRNTYLHWYLQKPGQSPQLLIYKVSNRFSGVPDRFSGSGSGTDFTLKISRVEAEDVGVYYCSQNTHVPPTFGQGTKVEIERTVAAPSVFIFPPSDEQLKSGTASVVCLLNNFYPREAKVQWKVDNALQSGNSQESVTEQDSKDSTYSLSSTLTLSKADYEKHKVYACEVTHQGLSSPVTKSFNRGEC |  |  |  | 2.57 | 3.4 % of control | 1.3 % of control |
| GpH7-A5/GpH7-B3 variant D265_08L/GpL16-k0 (antibody, human IgG1, kappa, Heterodimerized anti-glypican-3 IgG1; mutation in one H chain only; also called He Ab) heavy 1: not shown heavy 2: not shown light: DIVMTQSPLSLPVTPGEPASISCQASESLVHSNRNTYLHWYLQKPGQSPQLLIYKVSNRFSGVPDRFSGSGSGTDFTLKISRVEAEDVGVYYCSQNTHVPPTFGQGTKVEIERTVAAPSVFIFPPSDEQLKSGTASVVCLLNNFYPREAKVQWKVDNALQSGNSQESVTEQDSKDSTYSLSSTLTLSKADYEKHKVYACEVTHQGLSSPVTKSFNRGEC |  |  |  | 1.46 | 6.6 % of control | 4.6 % of control |
| GpH7-A5/GpH7-B3 variant G236_15Y/GpL16-k0 (antibody, human IgG1, kappa, Heterodimerized anti-glypican-3 IgG1; mutation in one H chain only; also called He Ab) heavy 1: not shown heavy 2: not shown light: DIVMTQSPLSLPVTPGEPASISCQASESLVHSNRNTYLHWYLQKPGQSPQLLIYKVSNRFSGVPDRFSGSGSGTDFTLKISRVEAEDVGVYYCSQNTHVPPTFGQGTKVEIERTVAAPSVFIFPPSDEQLKSGTASVVCLLNNFYPREAKVQWKVDNALQSGNSQESVTEQDSKDSTYSLSSTLTLSKADYEKHKVYACEVTHQGLSSPVTKSFNRGEC |  |  |  | 1.48 | 58.6 % of control | 39.5 % of control |
| GpH7-A5/GpH7-B3 variant G236_16H/GpL16-k0 (antibody, human IgG1, kappa, Heterodimerized anti-glypican-3 IgG1; mutation in one H chain only; also called He Ab) heavy 1: not shown heavy 2: not shown light: DIVMTQSPLSLPVTPGEPASISCQASESLVHSNRNTYLHWYLQKPGQSPQLLIYKVSNRFSGVPDRFSGSGSGTDFTLKISRVEAEDVGVYYCSQNTHVPPTFGQGTKVEIERTVAAPSVFIFPPSDEQLKSGTASVVCLLNNFYPREAKVQWKVDNALQSGNSQESVTEQDSKDSTYSLSSTLTLSKADYEKHKVYACEVTHQGLSSPVTKSFNRGEC |  |  |  | 2.24 | 62.7 % of control | 27.9 % of control |
| GpH7-A5/GpH7-B3 variant G236_19Q/GpL16-k0 (antibody, human IgG1, kappa, Heterodimerized anti-glypican-3 IgG1; mutation in one H chain only; also called He Ab) heavy 1: not shown heavy 2: not shown light: DIVMTQSPLSLPVTPGEPASISCQASESLVHSNRNTYLHWYLQKPGQSPQLLIYKVSNRFSGVPDRFSGSGSGTDFTLKISRVEAEDVGVYYCSQNTHVPPTFGQGTKVEIERTVAAPSVFIFPPSDEQLKSGTASVVCLLNNFYPREAKVQWKVDNALQSGNSQESVTEQDSKDSTYSLSSTLTLSKADYEKHKVYACEVTHQGLSSPVTKSFNRGEC |  |  |  | 1.59 | 74.2 % of control | 46.6 % of control |
| GpH7-A5/GpH7-B3 variant G236_20W/GpL16-k0 (antibody, human IgG1, kappa, Heterodimerized anti-glypican-3 IgG1; mutation in one H chain only; also called He Ab) heavy 1: not shown heavy 2: not shown light: DIVMTQSPLSLPVTPGEPASISCQASESLVHSNRNTYLHWYLQKPGQSPQLLIYKVSNRFSGVPDRFSGSGSGTDFTLKISRVEAEDVGVYYCSQNTHVPPTFGQGTKVEIERTVAAPSVFIFPPSDEQLKSGTASVVCLLNNFYPREAKVQWKVDNALQSGNSQESVTEQDSKDSTYSLSSTLTLSKADYEKHKVYACEVTHQGLSSPVTKSFNRGEC |  |  |  | 1.34 | 77.9 % of control | 58.2 % of control |
| GpH7-A5/GpH7-B3 variant G237_03V/GpL16-k0 (antibody, human IgG1, kappa, Heterodimerized anti-glypican-3 IgG1; mutation in one H chain only; also called He Ab) heavy 1: not shown heavy 2: not shown light: DIVMTQSPLSLPVTPGEPASISCQASESLVHSNRNTYLHWYLQKPGQSPQLLIYKVSNRFSGVPDRFSGSGSGTDFTLKISRVEAEDVGVYYCSQNTHVPPTFGQGTKVEIERTVAAPSVFIFPPSDEQLKSGTASVVCLLNNFYPREAKVQWKVDNALQSGNSQESVTEQDSKDSTYSLSSTLTLSKADYEKHKVYACEVTHQGLSSPVTKSFNRGEC |  |  |  | 1.52 | 93 % of control | 61.4 % of control |
